Measured values published in the DeepSol protein solubility set.

Test: soluble on expression in E. coli; label from the status in PepcDB or PDB records

Row | Sequence | soluble on expression in E. coli
1 | MAEPAQETPCFSMEKAERAFLDGNFEEALKHFFVCIRMLPVERRGVYEDQFAAALHGWIALDHNNASRAVCLYPQIKELFPETIRTKIALIRAVQGTEQSKWLLNCLPICKDSMDLATKPEDLVALRIARVNLTTIPFPQWHIRMINDVKRNEAFAKALNDTIKSRITVVFDIGSGTGILSAIAARKTNLVTALEENMCLTMISKEVLKRNGVESRVNVHAKNSTYFETCEKADIVVSETLDCCVFGEKIVETFLDAHVRFSHDRTIFIPHQATVYVRLFSCREIFDIHCQDYGGVRYRSEYVKIGESDAEQPYWCASAADYSQFELLSGSVAMHSVDFSSIANLKDSLANSNSFKIRPAKDGVAHGFSVHFTSDLTGHGDNIIDSSKSRAWDLGIIPFKEPCLVKCDKEYEGSWKLLNNRLDVYNDFYDENLQKHEDSLRYETASLDQLQKIRDDSYFKAMMGEIDPIELPFTRDISSSIPAQCVLNTVESQTPIRHLITNFCRYDGTLDQETFFRIEEFVGFRDHVQKIVPTKFRILGHLFYSDRVHFDARPDPSAHCQVDLSTVRSFNLREMRDIRLTQREDIVMASKEFVLYDFNISAEKFRQDTYITVTQDVTVQPTRPIADGVIYEFEILGIRNTKLRPVAAFLFPERVNTNPDMTVVFDLHLGEMLISLKDLP | not soluble
2 | MAEPKSFNIPYRSKLTERIEPGQTLIIRGKTIDESKRFNINLHKDSPDFSGNDVPLHLSIRFDEGKIVYNAYTKGTWGKEERAKNPIKKGDDFDIRIRAHDSKFQVSINHKEVKNFEHRIPLNSVSHLSIDGDVVLNHVQWGGKYYPVPYESGIAADGLVPGKTLVVYGTPEKKAKKFNINLLKKNGDIALHFNPRFDEKANGFMCAKPTPGSVVRNSLVNGEWGNEEREGKNPFERLTAFDLEIRNEEFAFQIFVNGERFASYAHRVDPHDIAGLQIQGDIELTGIQVVNNQPAQE | not soluble
3 | MAEPLFDMSATGRPRILILGGTTEARQLAERLVSEPHYDTAISLAGRTADPRPQPLPTRTGGFGGAEGLAVFLRERNIALLIDATHPFAARISLNAAAAAKMTGTPLLALRRPAWAAEPGDRWTCVGSVAEAVPALGEAPRRVFLAIGRQEAFHFERAPQHSYVVRSVDPVMPPLDLPDVTAILASGPFAQADETELLERHGIDVIVAKNSGGAATYGKIAAARQLGIEVVMVERHKPADVQSVGDCDEALERIRQWLSPVKDRGV | not soluble
4 | MAERPRTIGNALEYVPEAIKTEAICLAALEIQRYGTVLKYIPDALKTEAMCLAAVQKYGYALEYVPEALKTEAICLAAGYEELQYWPEALKTEAVCLAAVEKNSKLLEFVPEALKTEAVCLAAGYKELQYWPEALKTEAPYLAAVQKDGSMLATVPEALKTEAFCLAAVQKNVRAFEYVPEALKTEAVCLAAVEKNGKLLEFVPEALRTEAICLAALQKDSSLLQYIPEALKTEAFCLTAVQKDSSLLQYVPEAFKTEVICLAAVQKDSSLLQYIPEALKTEAFYLAAVRKDGYSLKYIPEALKTEAICLAAVQKNGYLLKYVPEALKTEAICLSAVKQEGSALAYVPEALKTEALCLAAVQKNSSLLQYVPDTFKTEAFEAKMRSVISSGSGSSGYGIELIKWKFLSKEQKEWLEKIPYYYDSSKALEIPAELFTEEFCLAVVLKNSDGSVLQYIPDAKKTEAVCLAAVHERYKNALRYIPDALKT | not soluble
5 | MAESVNLVCTFCGSVCDDGQFDVEQFKSKKLCKLGSAKFSKKERIKAPMIDGKEVSYEEAIEKAAEILVNAKKPLLYGWASTVNEAIRLGVILTEKVGGVYDQCASVCHAPGTLAVIEEGLPGGTLGAIKNRADVVVFWGANPMEAHPRHGMRYSISAKGLLIKDRKQRKVIVVDVRPTKTAKLADEFIQIKPGYDYPIISALRAIISGNADAVPDEVGGVSKEKLVELAETMKNAKYGAVLYGLGVTQSRGRDRNVENAVKLIQLLNRHTRWVIWPMRGHYNVVGAGEVPAWEVGYQYAIDFSRGYPRFSPAEFSAVEVLKRKDCDAALIIASDPVAHFPRAAVKHLKEIPVIQIDPFPNMTTLVANVVIPSAVAGLEAEGTAYRMDGIALRVKKVVESSYWSDEQILEKLLEKVEELKG | not soluble
6 | MAEVFVGPVAQGYASGEVTVLLASPRSFCAGVERAIETVKRVLDVAEGPVYVRKQIVHNTVVVAELRDRGAVFVEDLDEIPDPPPPGAVVVFSAHGVSPAVRAGADERGLQVVDATCPLVAKVHAEAARFAARGDTVVFIGHAGHEETEGTLGVAPRSTLLVQTPADVAALNLPEGTQLSYLTQTTLALDETADVIDALRARFPTLGQPPSEDICYATTNRQRALQSMVGECDVVLVIGSCNSSNSRRLVELAQRSGTPAYLIDGPDDIEPEWLSSVSTIGVTAGASAPPRLVGQVIDALRGYASITVVERSIATETVRFGLPKQVRAQ | not soluble
7 | MAEVHVRELKGWEEMEEVVALQREVWGRAESDLVPRGLLVAVQDEGGLVAGAFAEGRMVGFVFGFPTKDPALHHSHMLGVLEAYRGTGAALLLKRFQRDWCLARGVRRVVWTFDPMRGVNANFNLRKLGATAKTYLPDHYGPMSGINAGAPSDRLLAEWDL | not soluble
8 | MAEYLVPKSAVVFEEEIKKSRFITYLQHTEGLEDARAFWAKIKQEHPNARHHCWAAVAGKPTDSLQLGFSDDGEPAGTAGKPMLSALQGSQLGEISAVVVRYYGGILLGTGGLVRAYGNGVQQALKLIESEIKVERTLFKLDCDYGQLRLVQQLCEKYQVEILSQGFQANIHLILGISEKTIEAFSSELTEKSSGRLVIQLLEIGELEHHHHHH | soluble
9 | MAFAGLTDLRLFDNVSHYINELAGEFSPDTAHLHDHNCKCSIVDRLWCDYFGMGTCISREARARRKERKRNIKRLREARNASASPRDPFSNGHRYGHRSRSEGGNGDVRDDIKELIIETLEVIRTLVNNEQEPPQSLLKLNFIADEEKGWTMVVRALIYTIPENDPLGPAVISLFLDECPLPSRESVQTLLLSLGLSSEFVDSKHLPPSWHKNMCIVLGSLAEKMAGSAAVTMFNDKIKGYLMKIICYGLTYFPPNYGKTLKEKNTHCVRMFALLALEKFAQTRENQISICKMFTEMTTHPLIKMEEYLKNEEVSRYWFAKQEGFCAQWALDNIFILESRPYSYETCETSKINAMLNHEDVSEYLKIGPDGLEARCDVSSFESVRCTFEVMDGVWYYEATVLTSGVMQIGLATKRSRFLNHEGYGIGDDASSVAYDGCRQLVWYNAKSHKHEHENWQPGDVIGVLLNIPEGEVVFYLNGTPLKEPETEFLSNRQPSEGVFAAASFMSFQQCRFNFGASRFKYNPGKKFRCFNDFGKLSTEQRTIVPRRLRLELLEKEHIPEDYCTICFAAPGSTTLLPCNHDGFCSDCCNMMDHCPLCRKPIEERIQKTKNNRSFDNVKSPSNSSISAFVRVNSQRKSTRATSAVATHPTDTVIHTGITTANNRDIARRHTQV | not soluble
10 | MAFDAARYVHRYYASLAPAPGNEYPRLRAWEYLWEYVWDPSRSWDDLTAPEQLDTTALHLGFYLANWGMFRGSSGLLQNSNLDLMKALARQLFSGAGPELFELSLVDFAGNGARLAHNRKLLETVLGSMDALSSRVSWTDTLKSKILLGVWGEFPALDRHYVAACRALYPRRGLTSVNGGTLTALHRLIGEERLSFPRLETARKGLLYPTGRLADMAFFQYGLENALEHHHHHH | soluble
11 | MAFHHGRRCRITPLPETESLQESKKMNINELGARIDRPTIRELIAYATCRNRPISNSTLLRMEKDGRIPCRLKTPLTSPVWDTREVLEALGLQQ | not soluble
12 | MAFICELDEQWSYVGSKARQHWLGYAYNTKTGGVLAYTFGPRTDQTCRELLALLTPFNIGMLTSDDWGSYGREVPKNKHLTGKIFTQRIERNNLTLRTRIKRLGRKTICFSRSVEIHEKVIGAFIEKHMFY | not soluble
13 | MAFLGLFSLLVLQSMATGATFPEEAIADLSVNMYNRLRATGEDENILFSPLSIALAMGMMELGAQGSTQEEIRHSMGYDSLKNGEEFSFLKEFSNMVTAKESQYVMKIANSLFVQNGFHVNEEFLQMMKKYFNAAVNHVDFSQNVAVANYINKWVENNTNNLVKDLVSPRDFDAATYLALINAVYFKGNWKSQFRPENTRTFSFTKDDESEVQIPMMYQQGEFYYGEFSDGSNEAGGIYQVLEIPYEGDEISMMLVLSRQEVPLATLEPLVKAQLVEEWANSVKKQKVEVYLPRFTVEQEIDLKDVLKALGITEIFIKDANLTGLYDNKEIFLSKAIHKSFLEVNEEGSEAAAVSGMIAISRMAVLYPQVIVDHPFFFLIRNRRTGTILFMGRVMHPETMNTSGHDFEEL | soluble
14 | MAFPRRLLSLSLRVKDLEAALFFYRDLLGLKVEADPPRYRLFPEGRGFLLELLHDPEAPLRPYPSLGLYHFALLLPHRKALAGVFRRLLEAGAHFEGAADHGVSEALYFRDPEGNGLELYRDRPKEAWPKGPLMFTAPLNLEKLLAENPDPTPLPPETLLGHLHLHVEDLAAAEAFFNGKLGMEVTLRTYPGALFFAWDGYHHHVGANTWAGRRKAPPGATGLLGYTLLAPPGVPPGEHPDPTGALARVLTEPPPSP | soluble
15 | MAFSSRKEISSRNSERSTDDTACLRMSENGVALWCEKNVFVQENQPFVDYLPYFCSKVIGTLSIGKNLCGSFSGEKQSIPDKTIMVNIKI | not soluble
16 | MAGCSMMKVDRTFPDLKEIPVDLATRFRQMIEWLEIANSECRLTPYKKISHIYQIFHSQGVLECLFRRGEDDISFMIEASVYLLDHPLDGSRSSSPTICDFAGVLPTIFVTFRNKRLGTMVSGASVEFMEFAHHIQEHIHRTSFPEIRTAEIHKISLIDVRFGNMDRNAKNIIVKVEDNIPHFVPIDHEMCFINTGQNYNLCKPYWLSLEDSSIYEA | soluble
17 | MAGDPMDTISRISSYVAGKVVKYPGLKYIAGVAISYAIHKFEESGLWRSVPIDKYIQLPRELEHHHHHH | not soluble
18 | MAGDPMGSGESKANTAETPEVLDVKLTGPEKVNPGESAAYEAAVSYGDEAVTDADEVEFEVWKEGEKDASQMFKVKQEKGVYRLETTFKEDGVYTVQSHVTAKKQHSMPTLKVQVGDADAASNQSEEEHSHHHLEHHHHHH | soluble
19 | MAGDPMMSITIEQIRGALAGVADPQTGLELNVCVKDRDIHLAADPAALTIELGYPAGGVADSVRALAGAALAAAGLGAVRVAVTWNIIAHAVQPGLKPLPQVRNIIAVASGKGGVGKSTTAVNLALALAAEGARAGLLDADIYGPSVPAMLGLAGRPESRDNKTMEPLVGHGLQANSIGLLIDADAPAIWRGPMVTQALEQLLRQTNWRDLDYLVVDMPPGTGDIALTLAQKVPVAGAVIVTTPQDIALLDARKGLRMFQKVHVPILGVVENMAVHICPQCGHAEHIFGAGGGRRVAEQYEVPWLGSLPLQRAIREQTDAGNPTVAAEPESEVAGIYRDIARRVAARIAGLPRDMAGKLPAVVVRPALEHHHHHH | not soluble
20 | MAGDPMNIQDAQPSTLREMIKQGKLTGHTSGMAKGYVQANVVILPSKCAYDFLLFCFRNPKTCPLLDVSEKGNKSFTKYGVTADISTEVAAYRIYQYGELIETRANVDDLYTDDMVSFLIGCSFTFEHALLEAGIPIRHLEENHNVPMYVTNIPANPSGQFKGNITVSMRPMTMTQAIKATEITTRFKNVHGTPIHIGNPTEIGITDLALPDFGEPVTINENEVPVFWGCGVTPQSVALDAKPDLMITHAPGHMFITDIPDSQLSDLEHHHHHH | soluble
